Drawing on publication PMC7417555, “Comparative structural analyses and nucleotide-binding characterization of the four KH domains of FUBP1”, this text covers binding result, Kd and binding signal for six molecules.

For series [1], the target named is T1, FUBP1 KH4 (UniProt Q96AE4 376-443). The experiment in a line: EMSA; ITC: 25 mM HEPES pH 7.5, 50 mM NaCl (150 mM for tandem and KH1-4), 0.5 mM TCEP, 20 C; native PAGE: 200 uM protein, 5x ssDNA, 25 mM HEPES pH 7.5, 50 mM NaCl, 0.5 mM TCEP, 4 C, 0.5x TBE (KH4 0.5x TAE). Particulars: protein: recombinant; tags: N-terminal His6 kept in native PAGE; removed by TEV in general protocol.

Series [2] deals with T2, FUBP1 KH2 (UniProt Q96AE4 185-251). Described as above. The conditions noted are these: protein: recombinant; tags: His6 removed by TEV.
For series [3], the target named is T3, FUBP1 KH3 (UniProt Q96AE4 275-339). Described as above. The conditions noted are these: protein: recombinant; tags: His6 removed by TEV.
Series [4] has as its target T4, FUBP1 KH1 (UniProt Q96AE4 100-164). The series is described as above. The conditions noted are these: protein: recombinant; tags: His6 removed by TEV.
For series [5], the target named is T3, FUBP1 KH3. The experiment in a line: ITC; 50 mM NaCl; ITC: 25 mM HEPES pH 7.5, 50 mM NaCl (150 mM for tandem and KH1-4), 0.5 mM TCEP, 20 C; native PAGE: 200 uM protein, 5x ssDNA, 25 mM HEPES pH 7.5, 50 mM NaCl, 0.5 mM TCEP, 4 C, 0.5x TBE (KH4 0.5x TAE). Particulars: protein: recombinant; tags: His6 removed by TEV.
The target of series [6] is T1, FUBP1 KH4. The experiment in a line: ITC; 50 mM NaCl; Kd only in Fig 3C; ITC: 25 mM HEPES pH 7.5, 50 mM NaCl (150 mM for tandem and KH1-4), 0.5 mM TCEP, 20 C; native PAGE: 200 uM protein, 5x ssDNA, 25 mM HEPES pH 7.5, 50 mM NaCl, 0.5 mM TCEP, 4 C, 0.5x TBE (KH4 0.5x TAE). Particulars: protein: recombinant; tags: N-terminal His6 kept in native PAGE; removed by TEV in general protocol.

The target in series [7] is T2, FUBP1 KH2. The description is as above. The conditions noted are these: protein: recombinant; tags: His6 removed by TEV.
Series [8] deals with T4, FUBP1 KH1. Described as above. Particulars: protein: recombinant; tags: His6 removed by TEV.
A further series concerns the target FUBP1 KH2-3 (UniProt Q96AE4 185-339). The experiment in a line: ITC; 150 mM NaCl; range given for the three tandems; ITC: 25 mM HEPES pH 7.5, 50 mM NaCl (150 mM for tandem and KH1-4), 0.5 mM TCEP, 20 C; native PAGE: 200 uM protein, 5x ssDNA, 25 mM HEPES pH 7.5, 50 mM NaCl, 0.5 mM TCEP, 4 C, 0.5x TBE (KH4 0.5x TAE). Particulars: protein: recombinant; tags: His6 removed by TEV.

Another series concerns the target FUBP1 KH3-4 (UniProt Q96AE4 275-443). The description is as above. The conditions noted are these: protein: recombinant; tags: His6 removed by TEV.
Another series addresses FUBP1 KH1-2 (UniProt Q96AE4 100-251). The description is as above. The conditions noted are these: protein: recombinant; tags: His6 removed by TEV.
The target in the next series is FUBP1 KH1-4 (UniProt Q96AE4 100-443). The series can be described thus: ITC; 150 mM NaCl; ITC: 25 mM HEPES pH 7.5, 50 mM NaCl (150 mM for tandem and KH1-4), 0.5 mM TCEP, 20 C; native PAGE: 200 uM protein, 5x ssDNA, 25 mM HEPES pH 7.5, 50 mM NaCl, 0.5 mM TCEP, 4 C, 0.5x TBE (KH4 0.5x TAE). The conditions noted are these: protein: recombinant; tags: His6 removed by TEV.

Series [9] deals with T1, FUBP1 KH4. The experiment in a line: ITC; 50 mM NaCl; no preference between fragments 7 and 8; ITC: 25 mM HEPES pH 7.5, 50 mM NaCl (150 mM for tandem and KH1-4), 0.5 mM TCEP, 20 C; native PAGE: 200 uM protein, 5x ssDNA, 25 mM HEPES pH 7.5, 50 mM NaCl, 0.5 mM TCEP, 4 C, 0.5x TBE (KH4 0.5x TAE). The conditions noted are these: protein: recombinant; tags: N-terminal His6 kept in native PAGE; removed by TEV in general protocol.

Series [10] has as its target T2, FUBP1 KH2. The series can be described thus: ITC; 50 mM NaCl; preferred over fragment 8; ITC: 25 mM HEPES pH 7.5, 50 mM NaCl (150 mM for tandem and KH1-4), 0.5 mM TCEP, 20 C; native PAGE: 200 uM protein, 5x ssDNA, 25 mM HEPES pH 7.5, 50 mM NaCl, 0.5 mM TCEP, 4 C, 0.5x TBE (KH4 0.5x TAE). The conditions noted are these: protein: recombinant; tags: His6 removed by TEV.

T1 sequence (Q96AE4 376-443): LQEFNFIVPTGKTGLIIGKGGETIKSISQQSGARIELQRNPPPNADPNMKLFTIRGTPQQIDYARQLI
T2 sequence (Q96AE4 185-251): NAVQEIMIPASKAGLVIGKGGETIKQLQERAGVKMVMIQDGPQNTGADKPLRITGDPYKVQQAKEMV
T4 sequence (Q96AE4 100-164): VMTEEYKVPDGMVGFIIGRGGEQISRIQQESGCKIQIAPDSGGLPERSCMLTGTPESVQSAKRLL
T3 sequence (Q96AE4 275-339): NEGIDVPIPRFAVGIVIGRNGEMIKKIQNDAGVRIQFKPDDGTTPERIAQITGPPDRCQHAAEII
FUBP1 KH1-2, sequence (Q96AE4 100-251): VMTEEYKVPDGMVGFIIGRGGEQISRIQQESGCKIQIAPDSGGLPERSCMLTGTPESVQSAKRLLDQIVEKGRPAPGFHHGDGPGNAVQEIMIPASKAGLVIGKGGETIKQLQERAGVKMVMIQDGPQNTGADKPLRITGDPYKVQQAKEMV
FUBP1 KH2-3, sequence (Q96AE4 185-339): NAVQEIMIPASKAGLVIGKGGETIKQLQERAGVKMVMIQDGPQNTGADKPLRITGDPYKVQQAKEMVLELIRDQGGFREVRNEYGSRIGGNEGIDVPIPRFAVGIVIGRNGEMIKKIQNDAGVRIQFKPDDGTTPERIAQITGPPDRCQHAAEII
FUBP1 KH1-4, sequence (Q96AE4 100-443): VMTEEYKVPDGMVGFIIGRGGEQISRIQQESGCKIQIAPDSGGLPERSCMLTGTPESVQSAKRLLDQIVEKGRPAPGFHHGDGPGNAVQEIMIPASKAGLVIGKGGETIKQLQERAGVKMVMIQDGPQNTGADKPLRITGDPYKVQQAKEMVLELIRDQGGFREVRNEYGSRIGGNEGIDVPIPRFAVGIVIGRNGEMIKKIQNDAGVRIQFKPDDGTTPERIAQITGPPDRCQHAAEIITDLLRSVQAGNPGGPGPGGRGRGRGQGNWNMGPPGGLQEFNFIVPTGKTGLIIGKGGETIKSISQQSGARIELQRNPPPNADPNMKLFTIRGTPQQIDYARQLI
FUBP1 KH3-4, sequence (Q96AE4 275-443): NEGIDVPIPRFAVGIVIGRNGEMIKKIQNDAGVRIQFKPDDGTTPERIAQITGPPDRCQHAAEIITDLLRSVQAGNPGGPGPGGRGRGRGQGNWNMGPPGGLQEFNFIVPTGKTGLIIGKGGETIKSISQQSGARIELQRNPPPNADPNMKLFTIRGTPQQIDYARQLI

CCCTCGGGAA (ssDNA) [FUSE fragment 4, 10-mer]: the binding result in the series with FUBP1 KH4 [1] and in the series with FUBP1 KH2 [2] was “no binding” throughout.
TTTGTGTTAA (ssDNA) [FUSE fragment 8, 10-mer (native PAGE)]: the binding result with FUBP1 KH3 [3] and with FUBP1 KH1 [4] was “binds” in each case.
Take TTGTGTTA (ssDNA) [FUSE fragment 8, 8-mer (ITC)]: the Kd in the series with FUBP1 KH3 [5] was found to be 17 µM. For the same molecule, the binding signal with FUBP1 KH4 [6], in the series with FUBP1 KH2 [7] and with FUBP1 KH1 [8] was > 5 fold weaker than KH3 (at least) in each case.
Regarding ATGTATATTCCCTCGGGATTTTTTATTTTGTGTTATTCCACGGCATG (ssDNA) [47-mer c-Myc FUSE], the Kd with FUBP1 KH2-3 was around 5.29 µM; with FUBP1 KH3-4, around 5.29 µM; in the series with FUBP1 KH1-2, around 5.29 µM; with FUBP1 KH1-4, around 0.085 µM.
TTCCACGGAA (ssDNA) [FUSE fragment 10, 10-mer]: the binding result in the series with FUBP1 KH4 [1] and in the series with FUBP1 KH2 [2] was “no binding” each time.
Turning to TATTTTGT (ssDNA) [FUSE fragment 7, 8-mer (ITC)], the binding result with FUBP1 KH4 [9] and in the series with FUBP1 KH2 [10] was “binds” throughout.
